Experimental data taken from patent US20240287172A1 (SCIRHOM, published 2024).

T1: hiR2-FL-H620R-T7 (human, UniProt Q6PJF5 1-856)
T1 sequence: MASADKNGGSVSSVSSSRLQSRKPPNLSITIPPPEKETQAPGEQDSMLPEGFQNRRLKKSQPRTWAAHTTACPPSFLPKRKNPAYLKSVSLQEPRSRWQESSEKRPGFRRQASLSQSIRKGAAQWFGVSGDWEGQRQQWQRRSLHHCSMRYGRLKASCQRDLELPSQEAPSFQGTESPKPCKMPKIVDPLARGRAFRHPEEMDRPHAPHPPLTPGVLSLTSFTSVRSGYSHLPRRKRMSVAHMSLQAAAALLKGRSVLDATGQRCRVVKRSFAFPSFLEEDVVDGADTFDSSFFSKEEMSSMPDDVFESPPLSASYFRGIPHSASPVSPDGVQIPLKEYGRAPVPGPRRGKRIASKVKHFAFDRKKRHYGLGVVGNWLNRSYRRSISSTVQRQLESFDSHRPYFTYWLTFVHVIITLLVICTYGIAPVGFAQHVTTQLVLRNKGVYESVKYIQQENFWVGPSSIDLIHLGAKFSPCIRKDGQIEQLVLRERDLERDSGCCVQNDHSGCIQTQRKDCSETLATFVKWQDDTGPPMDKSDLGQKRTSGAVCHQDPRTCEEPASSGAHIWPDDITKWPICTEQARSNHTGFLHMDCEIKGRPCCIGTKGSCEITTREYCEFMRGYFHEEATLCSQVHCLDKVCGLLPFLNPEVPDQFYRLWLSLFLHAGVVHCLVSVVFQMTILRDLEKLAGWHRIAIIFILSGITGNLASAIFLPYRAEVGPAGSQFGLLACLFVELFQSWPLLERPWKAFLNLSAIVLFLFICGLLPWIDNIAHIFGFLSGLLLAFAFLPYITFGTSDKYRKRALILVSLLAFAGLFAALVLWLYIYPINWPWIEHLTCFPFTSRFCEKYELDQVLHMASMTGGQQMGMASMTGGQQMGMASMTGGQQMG

B1: antibody 48 (antibody, V domains shown)
VH: QVQLQQSGTELVRPGTSVKVSCKASGYAFTNYLIEWVKQRPGQGLEWIGVINPGSGFTKYNEKFKGKATLTADKSSSTVYMHLSSLTSEDSAVYFCARGLYRAMDYWGQGTSVTVSS
VL: DIQMTQSPASQSASLGESVTITCLASQTIATWLAWYQQKPGKSPQLLIYGATTLADGVPSRFSGGGSGTKFSFKISSLQAEDFVSYYCQQLYSTPYTFGGGTKLEIK
notes: mouse IgG, kappa light chain; also called clone #48; purified antibody 48
B2: antibody 50 (antibody, V domains shown)
VH: QVQLQQSGAELVRPGASVKVSCKASGYAFSNYLIEWVKQRPGQGLEWIGVINPGSGFTKYNEKFKGKATLTADKSSSTAYMQLSSLTSEDSAVYFCARGLYRAMDYWGQGTSVTVSS
VL: DIQMTQSPASQSASLGESVTITCLASQTIGTWLAWYQQKPGKSPQLLIYAAASLADGVPSRFSGGGSGTKFSFKISSLQAEDFVNYYCQQIYSTPYTFGGGTKLEIK
notes: mouse IgG, kappa light chain; also called clone #50; purified antibody 50
B3: antibody 43 (antibody, V domains shown)
VH: QVALKESGPGILQPSQTLSLTCSFSGFSLSTFGMGVGWIRQSSGKGLEWLANIWWDDDKYYNPALKSRLTISKDASKNQAFLKIANVDTADTATYYCARIGNYGSNYWYFDVWGTGTTVTVSS
VL: QIVLTQSPAIMSASPGERVTMTCSANSRISYMYWYQQKPGSSPRLLIYDTSNLASGVPVRFSGSGSGTSYSLTISRMEAEDAATYNCQQWSSYPLTFGAGTKLELK
notes: mouse IgG, kappa light chain; also called clone #43; purified antibody 43

Biological target: T1, hiR2-FL-H620R-T7
Assay: FACS, MEF-DKO cells, 3 µg/ml
Text: In brief, immortalized MEF-DKO hiR2-FL-G563D-T7, MEF-DKO hiR2-FL-A564P-T7, MEF-DKO hiR2-FL-1566E-T7, MEF-DKO hiR2-FL-D569E-T7, MEF-DKO hiR2-FL-E579K-T7, MEF-DKO hiR2-FL-Q580N-T7, MEF-DKO hiR2-FL-A581S-T7, MEF-DKO hiR2-FL-R582A-T7, MEF-DKO hiR2-FL-S583G-T7, MEF-DKO hiR2-FL-G587N-T7, MEF-DKO hiR2-FL-F588H-T7, MEF-DKO hiR2-FL-L589P-T7, MEF-DKO hiR2-FL-E594V-T7, MEF-DKO hiR2-FL-K596T-T7, MEF-DKO hiR2-FL-S607R-T7, MEF-DKO hiR2-FL-T612S-T7, MEF-DKO hiR2-FL-E617D-T7, MEF-DKO hiR2-FL-H620R-T7, MEF-DKO hiR2-FL-L636M-T7, MEF-DKO hiR2-FL-K638D-T7, MEF-DKO hiR2-FL-1771F-T7, MEF-DKO hiR2-FL-1825V-T7, MEF-DKO hiR2-FL-1828V-T7, MEF-DKO hiR2-FL-N829R-T7, MEF-DKO hiR2-FL-W830C-T7, MEF-DKO hiR2-FL-P831E-T7, MEF-DKO hiR2-FL-I833C-T7, MEF-DKO hiR2-FL-H835F-T7, MEF-DKO hiR2-FL-F8391-T7, MEF-DKO hiR2-FL-S843D-T7, MEF-DKO hiR2-FL-Q853A-T7, MEF-DKO hiR2-FL-V854Q-T7 and MEF-DKO hiR2-FL-R844K-T7 cells were harvested with 10 mM EDTA in PBS, washed and resuspended in FACS buffer (PBS, 3% FBS, 0.05% sodium azide), and seeded in Nunc U-bottom 96-well plates (Thermo Fisher Scientific, USA) at approximately 1×10⁵ cells per well. To pellet cells and remove supernatants, the plates were centrifuged at 1,500 rpm and 4° C. for 3 minutes. For primary staining, cells were resuspended in 100 μl per well of either FACS buffer alone (controls) or the purified antibodies 3, 5, 16, 22, 34, 42, 43, 44, 48, and 50 of the invention at 3 μg/ml in FACS buffer and incubated on ice for 1 hour. Afterwards, plates were centrifuged at 1,500 rpm and 4° C. for 3 minutes and washed twice with 200 μl per well of FACS buffer. For secondary staining, cells were spun down and resuspended in 100 μl per well of PE-conjugated goat anti-mouse IgG F(ab′)2 detection fragment (Dianova, Germany) diluted 1:100 in FACS buffer. Protected from light, the cell suspensions were incubated on ice for 1 hour. Plates were then centrifuged at 1,500 rpm and 4° C. for 3 minutes and washed three times with 200 μl per well of FACS buffer. Finally, cells were resuspended in 150 μl per well of FACS buffer and analyzed using a BD Accuri™ C6 Plus flow cytometer (Becton Dickinson, Germany).

Binder	loss of binding vs wild type [%]
B1	≥ 30
B2	≥ 30
B3	≥ 30
